Two molecules from paper PMC11046469, “Leveraging a Phage-Encoded Noncanonical Amino Acid: A Novel Pathway to Potent and Selective Epigenetic Reader Protein Inhibitors” (ACS Central Science, 2024) can be followed below.

Where a SMILES comes first, the peptide text is derived from it. The star is where a group is joined. FITC = O=C1OC2(c3ccc(O)cc3Oc3cc(O)ccc32)c2ccc(NC(=S)*)cc21; Oxazole(5-CO) = O=C(c1cnco1)*; Ahx = NCCCCCC(=O)O

The subject of one data set is MOLM-13 cells. It is filed as cell-based. The text has this:
(§1) For peptides developed for intracellular targets, a common concern is their cellular permeability to engage the targets. For the ENL YEATS domain that is a nuclear protein, its inhibitors will also need to translocate to the nucleus to exert their inhibition activities. […] We attached FITC to tENL-S1o to afford FITC-tENL-S1o that could be fluorescently imaged. […] Although results from this pilot study were very encouraging, the conjugated FITC could have assisted the cellular penetration process. A more accurate assay was needed for the use of unmodified peptides. […] There are three components required to gauge the peptide inhibitory potency for ENL expressed in cells through NanoBRET assays: (1) an ENL YEATS-NanoLuc luciferase fusion protein, (2) a NanoLuc luciferase substrate, and (3) a fluorescent tracer that binds specifically and reversibly to the reader channel of ENL YEATS. […] The cellular potency of peptides can be determined through the decrease in BRET as test peptides engage the ENL YEATS domain and displace the tracer. […]
(§2) Fluorescence microscopy study with FITC-6AHX-tENL-S1o: […]
(§3) Cell proliferation assays were performed in 96-well tissue culture plates (Corning). […] Cell numbers were determined every 3–4 days using the Countess automated cell counter (Invitrogen). […]

A further data set relates to MV4-11 cells. It is filed as cell-based.
Excerpt: as §1, §2, §3

The next data set concerns the target T1, ENL YEATS (His-ENL) (Homo sapiens, UniProt Q03111).
T1 construct: (aa 1−148) was cloned in pET19b; made in house; host or cells: E. coli BL21(DE3pLysS)
T1 sequence (Q03111 1-148): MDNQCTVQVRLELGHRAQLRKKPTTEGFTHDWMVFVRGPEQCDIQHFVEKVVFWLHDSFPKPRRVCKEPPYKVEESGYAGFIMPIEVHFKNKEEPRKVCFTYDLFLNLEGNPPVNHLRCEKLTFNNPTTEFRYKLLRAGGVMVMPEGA
Briefly: Fluorescence polarization binding of tracer to ENL YEATS. The procedure:
Meanwhile, we established a stable cell line for NanoLuc-ENL YEATS expression. The binding of SR-0813T to […] was also validated using a fluorescence polarization assay (Figure S16).
Fluorescence Polarization:
Tracer 1 (10 nM) and varying concentrations of His-ENL (14 nM to 7.2 µM) were mixed in a 200 µL of assay buffer (50 mM HEPES, 100 mM NaCl, 0.01% Tween20, pH: 7.4). The solutions were incubated in black 96-well plates and then measured fluorescence polarization in a microplate reader at Ex/Em = 530 nm/590 nm.
NanoBRET Assay to Validate ENL Inhibitors:
HEK293T/17 cells harboring pCDH-EF1-Nluc-ENL were cultivated in growth medium overnight at 37 °C and 5% CO2. […] Following a quick spin (100 rcf, 1 min), a plate reader equipped with the LUM 610 LP 450 module was used to measure the emissions at 450 nm (donor) […]
The final BRET ratio was calculated by dividing the acceptor emission (610 nm) by the donor emission (450 nm). The BRET ratio was calculated using the following equation: […]
MOLM-13 cells were incubated with test compound (tENL-S1f at a final concentration of 10 and 50 μM) and control (DMSO at a final concentration of 0.1%) for 24 hours. […] Quantitative real-time PCR (qRT-PCR) analyses were performed in triplicate using SYBR Select Master Mix (Applied Biosystems) […]
Gene expressions were calculated following normalization to B2M levels using the comparative C t (cycle threshold) method. […]
A general note: In fluorescence polarisation assays a small probe gives low polarisation when free and higher when bound to something large.

Consider `CC(C)[C@H](NC(=O)CCCCCNC(=S)Nc1ccc2c(c1)C(=O)OC21c2ccc(O)cc2Oc2cc(O)ccc21)C(=O)N[C@@H](Cc1ccc(O)cc1)C(=O)N[C@@H](CS)C(=O)N[C@@H](Cc1ccc(O)cc1)C(=O)N[C@@H](CCCCNC(=O)c1cnco1)C(N)=O` [FITC-tENL-S1o] ({FITC-Ahx}-VYCYK(Oxazole(5-CO))-NH2), for which the “cellular fluorescence (cell penetration)” value with MOLM-13 cells and with MV4-11 cells was “strong fluorescence within the cells” in each case.
What is called Kd is the concentration at which binding is half-saturated. A higher Kd goes with weaker binding. For the molecule `O=C(CCC1=[N+]2C(=Cc3ccc(-c4ccc[nH]4)n3[B-]2(F)F)C=C1)NCCCC(=O)Nc1cccc(-c2cn3cc(C(=O)NC4CCC4)ccc3n2)c1` [SR-0813T], the equilibrium dissociation constant (Kd) at ENL YEATS (His-ENL) is 1100 nM.
